Here are results for one substance from US20210120790A1.

The target in experiment [1] is Endogenous mouse SIRPα of wildtype BALB/c mice (mouse (BALB/c)) (UniProt P97797). The experiment is described as follows: flow cytometry; CD47 protein on peritoneal cavity cells of wildtype BALB/c mice, detected with human anti-CD47 antibody and AF647 anti-hIgG. For orientation: In flow cytometry, cells or beads pass a laser one at a time.
The target in experiment [2] is Endogenous mouse SIRPα of wildtype C57BL/6 mice (mouse (C57BL/6)) (UniProt P97797). Put plainly: flow cytometry; CD47 protein on peritoneal cavity cells of wildtype C57BL/6 mice, detected with human anti-CD47 antibody and AF647 anti-hIgG.

Chain of UniProt P97797 (P97797 32-513): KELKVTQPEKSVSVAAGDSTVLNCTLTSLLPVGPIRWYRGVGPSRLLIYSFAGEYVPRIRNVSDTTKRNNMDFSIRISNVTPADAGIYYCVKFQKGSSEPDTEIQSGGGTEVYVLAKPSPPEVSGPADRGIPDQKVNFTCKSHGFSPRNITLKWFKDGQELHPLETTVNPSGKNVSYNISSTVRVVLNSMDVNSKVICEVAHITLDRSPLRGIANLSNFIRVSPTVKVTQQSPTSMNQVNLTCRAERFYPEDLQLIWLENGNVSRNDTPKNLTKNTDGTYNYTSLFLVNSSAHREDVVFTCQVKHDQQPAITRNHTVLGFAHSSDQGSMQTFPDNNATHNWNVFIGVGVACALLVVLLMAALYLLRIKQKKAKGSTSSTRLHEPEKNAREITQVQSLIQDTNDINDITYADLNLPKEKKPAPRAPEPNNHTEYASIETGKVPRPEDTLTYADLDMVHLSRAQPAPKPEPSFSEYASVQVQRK

In the case of “Mouse CD47 proteins (added to peritoneal cavity cells, Example 16) (ligand)”, the geometric mean of flow cytometry signal in experiment [1] and in experiment [2] was 100 in each case.
